Data on one protein can be found in patent US12291504B2, “Small molecule inhibition of sulfotransferase SULT1A3” (University of Pittsburgh—Of the Commonwealth System of …, priority 2018, dated 2025).

As usually defined, the kcat is the maximal rate divided by the concentration of active sites.

Substrate in the data set: Oc1ccc2ccc3cccc4ccc1c2c34
Description: SULT1A3 inhibition studies, 1-HP initial-rate fluorescence assay. Type of data set: biochemical, human. As to conditions: other: WT enzyme; saturating PAPS (500 μM, 17 × Km); pH 7.5; 25.0 °C. The procedure: The initial rates of SULT catalyzed 1-HP sulfonation are plotted as a function of inhibitor concentration, and are normalized relative to [inhibitor]=0. Enzyme activity was monitored by the sulfonation dependent change in 1-HP fluorescence (λex=325 nm, λem=370 nm). Less than 5% of the concentration-limiting substrate converted at the reaction endpoint was consumed during initial-rate measurements. Each point is the average of three independent determinations. Conditions: SULT (20 nM, active sites), PAPS (0.50 mM, 17×Km), 1-HP (5.0 μM, 61×Km), KPO4 (50 mM), pH 7.5, 25±2° C.
Initial-Rate Studies. Initial-rate parameters for the labeled or mutant SULT1A3 constructs were determined using a previously described 1-HP assay (25). […] Reactions were monitored via fluorescence change associated with the conversion of 1-HP to 1-HP-S (λex=325 nm, λem=370 nm). […] Reaction progress curves were analyzed to obtain initial-rate parameters as described previously (26,27). […]
Initial-Rate Studies. Initial-rate parameters for the labeled or mutant SULT1A3 constructs were determined using a previously described 1-HP assay (47). […] Reactions were monitored via fluorescence change associated with the conversion of 1-HP to 1-HP-S (λex=325 nm, λem=370 nm). […] Reaction progress curves were analyzed to obtain initial-rate parameters as described previously (48,49). […]

B1: SULT1A3 (Homo sapiens) (protein)
chain: MELIQDTSRPPLEYVKGVPLIKYFAEALGPLQSFQARPDDLLINTYPKSGTTWVSQILDMIYQGGDLEKCNRAPIYVRVPFLEVNDPGEPSGLETLKDTPPPRLIKSHLPLALLPQTLLDQKVKVVYVARNPKDVAVSYYHFHRMEKAHPEPGTWDSFLEKFMAGEVSYGSWYQHVQEWWELSRTHPVLYLFYEDMKENPKREIQKILEFVGRSLPEETMDFMVQHTSFKEMKKNPMTNYTTVPQELMDHSISPFMRKGMAGDWKTTFTVAQNERFDADYAEKMAGCSLSFRSEL
notes: Wild-type and mutant SULT1A3 coding regions were inserted into a pGEX-6P expression vector; N-His/GST/MBP triple-tag (N, cleaved yes); made in house; host or cells: E. coli BL21(DE3)
As for B1, the Km is reported as 82 (3) nM and the kcat amounted to 2 s⁻¹.
